Among the data in patent US20160024226A1 are IC50 (read off the curve) [lower panel] and IC50 (read off the curve) [upper panel] values, retold here.

This assay concerns the target TNF-α (WEHI-13VAR cytotoxicity assay of Example 2).

cycloalkyne-modified adalimumab Fab′ showed an IC50 (read off the curve) [lower panel] of 0.5 µg/mL and an IC50 (read off the curve) [upper panel] of 0.3 µg/mL.
